The values below come from paper PMC9764456 (Cell reports, 2022).

The series deals with the molecule itself. Put plainly: negative stain electron microscopy.

B1: peroxiredoxin PRDX2 (enzyme, human (endogenous in RBCs), UniProt P32119 1-198, looked up)
chain: MASGNARIGKPAPDFKATAVVDGAFKEVKLSDYKGKYVVLFFYPLDFTFVCPTEIIAFSNRAEDFRKLGCEVLGVSVDSQFTHLAWINTPRKEGGLGPLNIPLLADVTRRLSEDYGVLKTDEGIAYRGLFIIDGKGVLRQITVNDLPVGRSVDEALRLVQAFQYTDEHGEVCPAGWKPGSDTIKPNVDDSKEYFSKHN
As to B1, the “stoichiometry N” value is 10.
